Consider 4 substances from US20170035877A1.

Broadly, the Kd is a measure of binding affinity in units of concentration. A high value points to lower affinity.

For assay [1], the target named is JRFL SOSIP.663 trimer, negatively selected (flow-through of the F105 column) (HIV-1 JRFL (subtype B)) (UniProt P20871). Briefly: negative-stain EM, 2D class averages.
Assay [2] addresses 16055 SOSIP.663 trimer, negatively selected (flow-through of the GE136 column) (HIV-1 16055 (subtype C)). Briefly: negative-stain EM, 2D class averages.
The target in assay [3] is 16055 SOSIP (HIV-1 16055 (subtype C)). Briefly: ITC. As to conditions: Fab.
Assay [4] has as its target JRFL SOSIP.663 trimer, negatively selected (flow-through of the F105 column) (HIV-1 JRFL (subtype B)) (UniProt P20871). Briefly: negative-stain EM, stoichiometry from micrographs.
Assay [5] has as its target 16055 SOSIP.663 trimer, negatively selected (flow-through of the GE136 column) (HIV-1 16055 (subtype C)). Nature of the assay: negative-stain EM, stoichiometry from micrographs.
For assay [6], the target named is 16055 gp120 (HIV-1 16055 (subtype C)).

Take 19b Fab: the percent of trimers with one Fab bound came to 25% in assay [1] and 22% in assay [2].

For the substance VRC01 Fab, the Kd in assay [3] is 97 nM.

In assay [4], PGT151 Fab showed a percent of trimers with one Fab bound of 28%, a percent of trimers with three Fabs bound of 11% and a percent of trimers with two Fabs bound of 36%. Moreover, in assay [5], the percent of trimers with one Fab bound was determined as 34%, the percent of trimers with three Fabs bound was found to be 0% and the percent of trimers with two Fabs bound was 20%.

As to F105, the Kd in assay [6] was determined as 30.2 nM.
